Measurements published in the supplement of paper PMC10065799, “High-throughput profiling of sequence recognition by tyrosine kinases and SH2 domains using bacterial peptide display” (eLife, 2023).

Legend:
AncSZ = assay: phosphorylation enrichment, bacterial display (enrichment ratio); higher = better substrate or ligand; peptides without Tyr show the background
EPHB1 = EPHB1 (UniProt P54762); assay: as above
EPHB2 = EPHB2 (UniProt P29323); assay: as above
FGFR1 = FGFR1 (UniProt P11362); assay: as above
FGFR3 = FGFR3 (UniProt P22607); assay: as above
Fer (mouse) = assay: as above
Fes = Fes (UniProt P07332); assay: as above
Fyn = Fyn (UniProt P06241); assay: as above
Hck = Hck (UniProt P08631); assay: as above
Jak2 = Jak2 (UniProt O60674); assay: as above
MERTK = MERTK (UniProt Q12866); assay: as above
c-Abl (mouse) = assay: as above
c-Src = assay: as above
Grb2 SH2 = Grb2 SH2 (UniProt P62993); assay: SH2 binding enrichment of the phosphorylated peptide, bacterial display (enrichment ratio); higher = better substrate or ligand; peptides without Tyr show the background
SHP2-C SH2 = assay: as above
c-Src SH2 = assay: as above
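For SH2 binding enrichment of the phosphorylated peptide, bacterial display in this document: peptide library displayed on the E. coli surface as eCPX fusions, selected cells deep-sequenced, score is each peptide's frequency after selection divided by its frequency in the input.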
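For phosphorylation enrichment, bacterial display in this document: 11-residue human phosphosite peptides and single-mutation variants displayed on the E. coli surface, counted by deep sequencing, each peptide's frequency after selection divided by its frequency in the unselected input library; frequency after pTyr selection over input frequency; kinase dosed for 20-30% of maximal phosphorylation in three min.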

Sequence of FGFR1 (P11362 whole entry, looked up): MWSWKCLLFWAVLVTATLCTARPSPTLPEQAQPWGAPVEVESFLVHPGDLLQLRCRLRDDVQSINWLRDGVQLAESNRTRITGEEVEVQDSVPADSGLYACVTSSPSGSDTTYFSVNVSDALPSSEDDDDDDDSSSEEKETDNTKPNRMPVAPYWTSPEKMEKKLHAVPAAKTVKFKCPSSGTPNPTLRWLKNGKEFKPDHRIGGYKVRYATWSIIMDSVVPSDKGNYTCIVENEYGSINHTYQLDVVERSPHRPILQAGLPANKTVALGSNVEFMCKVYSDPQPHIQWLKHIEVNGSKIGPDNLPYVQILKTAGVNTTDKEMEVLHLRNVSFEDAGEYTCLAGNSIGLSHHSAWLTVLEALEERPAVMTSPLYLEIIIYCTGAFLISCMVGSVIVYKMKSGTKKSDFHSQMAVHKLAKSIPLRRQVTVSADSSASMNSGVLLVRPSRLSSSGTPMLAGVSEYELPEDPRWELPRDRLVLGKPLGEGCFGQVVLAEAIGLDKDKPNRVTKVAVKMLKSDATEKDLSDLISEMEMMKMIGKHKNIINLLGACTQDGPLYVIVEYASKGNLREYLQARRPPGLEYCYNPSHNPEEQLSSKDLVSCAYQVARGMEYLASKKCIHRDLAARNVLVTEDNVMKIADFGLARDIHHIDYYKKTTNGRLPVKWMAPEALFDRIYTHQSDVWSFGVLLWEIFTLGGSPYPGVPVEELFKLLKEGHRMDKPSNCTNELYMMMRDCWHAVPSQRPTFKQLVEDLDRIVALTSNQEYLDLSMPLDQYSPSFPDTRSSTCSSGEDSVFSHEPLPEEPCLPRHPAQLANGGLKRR
Sequence of Fes (P07332 whole entry, looked up): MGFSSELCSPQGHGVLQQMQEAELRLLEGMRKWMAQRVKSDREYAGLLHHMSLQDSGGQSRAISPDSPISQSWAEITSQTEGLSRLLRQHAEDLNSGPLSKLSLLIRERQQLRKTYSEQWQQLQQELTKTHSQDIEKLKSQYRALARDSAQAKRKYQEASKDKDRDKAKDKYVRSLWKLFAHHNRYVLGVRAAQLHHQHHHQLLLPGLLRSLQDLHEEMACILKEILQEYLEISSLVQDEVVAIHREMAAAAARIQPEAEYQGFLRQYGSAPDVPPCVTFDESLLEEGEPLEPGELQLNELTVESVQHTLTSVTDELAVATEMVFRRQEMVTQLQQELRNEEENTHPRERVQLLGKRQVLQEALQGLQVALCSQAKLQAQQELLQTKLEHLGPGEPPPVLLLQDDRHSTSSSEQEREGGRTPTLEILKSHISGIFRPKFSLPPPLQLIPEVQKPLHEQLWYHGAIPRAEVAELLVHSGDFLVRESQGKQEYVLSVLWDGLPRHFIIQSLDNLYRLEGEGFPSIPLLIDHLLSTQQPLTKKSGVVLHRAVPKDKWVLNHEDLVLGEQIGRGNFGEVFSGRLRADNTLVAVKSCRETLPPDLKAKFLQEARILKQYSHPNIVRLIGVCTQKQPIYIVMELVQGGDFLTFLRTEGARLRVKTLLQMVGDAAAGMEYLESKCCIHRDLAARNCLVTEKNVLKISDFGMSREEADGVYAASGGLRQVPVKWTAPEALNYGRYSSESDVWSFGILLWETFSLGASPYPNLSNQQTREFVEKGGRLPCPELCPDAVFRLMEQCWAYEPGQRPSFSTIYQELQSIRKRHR
Sequence of EPHB2 (P29323 whole entry, looked up): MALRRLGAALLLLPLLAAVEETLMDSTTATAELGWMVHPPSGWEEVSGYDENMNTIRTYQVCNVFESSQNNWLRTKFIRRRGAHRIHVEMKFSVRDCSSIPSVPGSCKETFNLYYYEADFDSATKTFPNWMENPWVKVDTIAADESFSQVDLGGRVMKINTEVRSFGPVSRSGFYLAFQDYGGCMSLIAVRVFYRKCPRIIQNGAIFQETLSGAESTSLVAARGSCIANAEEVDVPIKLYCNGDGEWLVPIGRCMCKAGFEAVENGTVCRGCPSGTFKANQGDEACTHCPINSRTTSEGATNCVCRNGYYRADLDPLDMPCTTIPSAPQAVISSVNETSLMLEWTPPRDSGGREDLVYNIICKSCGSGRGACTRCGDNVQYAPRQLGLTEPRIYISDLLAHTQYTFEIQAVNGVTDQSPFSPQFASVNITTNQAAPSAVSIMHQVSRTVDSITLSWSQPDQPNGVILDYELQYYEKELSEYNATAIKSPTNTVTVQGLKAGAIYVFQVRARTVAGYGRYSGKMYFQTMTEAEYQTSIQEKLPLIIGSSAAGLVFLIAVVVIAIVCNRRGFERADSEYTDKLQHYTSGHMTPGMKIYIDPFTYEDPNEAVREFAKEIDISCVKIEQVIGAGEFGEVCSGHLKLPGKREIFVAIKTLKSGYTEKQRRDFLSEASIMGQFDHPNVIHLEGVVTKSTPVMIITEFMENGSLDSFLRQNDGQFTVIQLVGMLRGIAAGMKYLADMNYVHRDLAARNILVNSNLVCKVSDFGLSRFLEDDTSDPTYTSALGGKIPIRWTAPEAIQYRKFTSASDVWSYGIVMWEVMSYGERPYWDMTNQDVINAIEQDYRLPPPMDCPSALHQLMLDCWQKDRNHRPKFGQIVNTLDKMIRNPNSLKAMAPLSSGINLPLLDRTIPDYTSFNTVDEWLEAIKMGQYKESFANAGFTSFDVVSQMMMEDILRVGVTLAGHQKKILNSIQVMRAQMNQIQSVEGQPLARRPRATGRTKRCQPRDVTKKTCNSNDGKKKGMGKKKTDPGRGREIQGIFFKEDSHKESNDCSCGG
Sequence of Fyn (P06241 whole entry, looked up): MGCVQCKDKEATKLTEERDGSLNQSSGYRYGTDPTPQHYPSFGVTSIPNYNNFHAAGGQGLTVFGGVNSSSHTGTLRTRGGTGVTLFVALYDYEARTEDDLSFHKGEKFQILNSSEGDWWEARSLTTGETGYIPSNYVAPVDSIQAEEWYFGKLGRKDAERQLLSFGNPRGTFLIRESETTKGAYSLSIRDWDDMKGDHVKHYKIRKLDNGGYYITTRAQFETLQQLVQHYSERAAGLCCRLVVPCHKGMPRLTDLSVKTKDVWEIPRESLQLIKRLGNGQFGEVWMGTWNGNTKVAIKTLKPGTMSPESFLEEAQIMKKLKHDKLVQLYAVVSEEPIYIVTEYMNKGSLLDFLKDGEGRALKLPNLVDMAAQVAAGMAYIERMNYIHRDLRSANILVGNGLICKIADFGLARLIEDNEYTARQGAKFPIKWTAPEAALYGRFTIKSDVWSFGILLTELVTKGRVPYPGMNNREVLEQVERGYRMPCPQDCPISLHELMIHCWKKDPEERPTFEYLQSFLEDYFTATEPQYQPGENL
Sequence of Jak2 (O60674 whole entry, looked up): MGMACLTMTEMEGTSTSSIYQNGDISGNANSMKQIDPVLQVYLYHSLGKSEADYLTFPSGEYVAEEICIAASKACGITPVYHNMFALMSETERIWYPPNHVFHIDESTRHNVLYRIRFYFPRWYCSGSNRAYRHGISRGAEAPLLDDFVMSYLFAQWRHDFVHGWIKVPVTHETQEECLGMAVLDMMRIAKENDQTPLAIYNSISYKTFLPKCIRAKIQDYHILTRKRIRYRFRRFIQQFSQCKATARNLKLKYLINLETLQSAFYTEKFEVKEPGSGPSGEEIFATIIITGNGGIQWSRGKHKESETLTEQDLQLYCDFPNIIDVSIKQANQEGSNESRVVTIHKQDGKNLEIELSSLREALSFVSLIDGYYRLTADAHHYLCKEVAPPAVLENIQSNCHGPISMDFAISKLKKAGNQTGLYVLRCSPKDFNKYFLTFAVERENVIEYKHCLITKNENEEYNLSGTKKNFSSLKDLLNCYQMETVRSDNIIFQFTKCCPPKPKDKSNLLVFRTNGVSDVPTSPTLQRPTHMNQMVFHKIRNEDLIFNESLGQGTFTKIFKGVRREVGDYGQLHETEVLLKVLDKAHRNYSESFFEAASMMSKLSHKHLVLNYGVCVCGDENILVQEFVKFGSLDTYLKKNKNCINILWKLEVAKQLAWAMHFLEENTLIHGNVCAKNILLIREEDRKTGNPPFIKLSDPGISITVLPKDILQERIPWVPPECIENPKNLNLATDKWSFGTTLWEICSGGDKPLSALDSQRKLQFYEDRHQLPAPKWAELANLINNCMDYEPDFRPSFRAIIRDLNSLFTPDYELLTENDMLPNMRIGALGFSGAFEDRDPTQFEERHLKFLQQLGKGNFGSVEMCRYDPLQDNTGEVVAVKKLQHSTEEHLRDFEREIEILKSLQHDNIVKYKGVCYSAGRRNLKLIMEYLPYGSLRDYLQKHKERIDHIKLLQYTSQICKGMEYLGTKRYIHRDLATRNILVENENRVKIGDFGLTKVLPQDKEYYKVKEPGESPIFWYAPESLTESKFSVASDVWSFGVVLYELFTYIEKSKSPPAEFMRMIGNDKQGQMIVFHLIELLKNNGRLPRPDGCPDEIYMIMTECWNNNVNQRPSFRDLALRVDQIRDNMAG
Sequence of Hck (P08631 whole entry, looked up): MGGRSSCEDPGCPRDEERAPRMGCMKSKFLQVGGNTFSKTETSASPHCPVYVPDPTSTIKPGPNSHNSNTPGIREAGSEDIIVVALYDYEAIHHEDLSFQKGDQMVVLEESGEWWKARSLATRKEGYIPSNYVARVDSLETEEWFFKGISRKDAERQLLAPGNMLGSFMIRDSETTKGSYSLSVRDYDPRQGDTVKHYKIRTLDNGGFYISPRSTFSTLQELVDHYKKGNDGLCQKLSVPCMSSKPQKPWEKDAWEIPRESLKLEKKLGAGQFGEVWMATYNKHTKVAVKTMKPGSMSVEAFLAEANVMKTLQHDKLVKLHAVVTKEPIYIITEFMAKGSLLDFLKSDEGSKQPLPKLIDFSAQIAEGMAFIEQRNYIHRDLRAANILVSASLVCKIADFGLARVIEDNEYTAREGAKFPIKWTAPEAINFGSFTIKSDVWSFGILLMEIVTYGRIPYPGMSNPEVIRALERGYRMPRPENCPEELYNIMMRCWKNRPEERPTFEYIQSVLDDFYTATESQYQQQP

SH2 binding enrichment (Grb2 SH2) | SH2 binding enrichment (SHP2-C SH2) | SH2 binding enrichment (c-Src SH2) | Sequence | phosphorylation enrichment (AncSZ) | phosphorylation enrichment (EPHB1) | phosphorylation enrichment (EPHB2) | phosphorylation enrichment (FGFR1) | phosphorylation enrichment (FGFR3) | phosphorylation enrichment (Fer (mouse)) | phosphorylation enrichment (Fes) | phosphorylation enrichment (Fyn) | phosphorylation enrichment (Hck) | phosphorylation enrichment (Jak2) | phosphorylation enrichment (MERTK) | phosphorylation enrichment (c-Abl (mouse)) | phosphorylation enrichment (c-Src)
0.993 | 0.624 | 0.779 | GDEEDYEEIPG [EGFR_opt_E_2015] | 1.36 | 0.893 | 0.59 | 0.62 | 0.823 | 0.645 | 1.38 | 0.596 | 0.527 | 1.36 | 0.498 | 0.898 | 0.598
0.542 | 0.457 | 0.301 | VAFLFYKSIGP [ADGRL4_Y302_V300L_YF] | 1.38 | 0.689 | 0.664 | 0.739 | 0.837 | 0.55 | 1.6 | 0.5 | 0.488 | 1.98 | 0.523 | 1.12 | 0.558
0.677 | 0.631 | 0.803 | IDDNQYAFLKA [HNF4A_Y286_E285Q_YF] | 0.823 | 0.494 | 0.487 | 2.5 | 1.61 | 0.852 | 0.839 | 0.604 | 1.64 | 0.709 | 0.84 | 1.02 | 0.553
1.07 | 0.575 | 0.707 | QMVDMYASSFM [AVPR2_Y124_G122D_YF] | 1.29 | 0.992 | 0.805 | 0.779 | 0.923 | 0.9 | 1.31 | 1.35 | 1.58 | 1.47 | 0.707 | 1.2 | 2.34
1.02 | 0.939 | 0.687 | NTGDYYDLYGG [PTPN11_Y63] | 4.64 | 13 | 14.4 | 14.7 | 13.8 | 1.59 | 1.13 | 5.18 | 5.35 | 4.07 | 4.18 | 1.02 | 5
0.836 | 0.664 | 0.557 | STEAIYRRYSK [SH3PXD2B_Y42] | 0.511 | 0.302 | 0.441 | 0.41 | 0.425 | 0.341 | 0.418 | 0.456 | 0.425 | 0.534 | 0.466 | 0.709 | 0.52
0.793 | 0.889 | 0.669 | ALPVFYAATIA [SLC20A2_Y187] | 0.823 | 0.905 | 0.756 | 0.394 | 0.651 | 1.2 | 1.03 | 0.544 | 0.956 | 0.886 | 2.96 | 0.831 | 0.598
0.898 | 1.01 | 0.57 | RTVPLYESPRK [DDB1_Y718] | 1.31 | 20.7 | 26.6 | 0.374 | 0.577 | 16 | 1.77 | 3.13 | 10.5 | 0.833 | 7.82 | 26 | 3.79
0.844 | 0.428 | 0.369 | QRIYQYIRSRF [DYRK1B_Y273_Q275R] | 0.887 | 0.9 | 0.601 | 0.677 | 0.818 | 0.734 | 1.17 | 0.809 | 1.05 | 0.817 | 1.01 | 1.27 | 1.16
1.01 | 0.708 | 0.573 | HICTAYELVLA [DHCR24_Y190] | 1.8 | 0.891 | 1.02 | 3.12 | 2.2 | 8.27 | 1.74 | 0.598 | 0.779 | 1.6 | 1.56 | 1.13 | 2.77
1.06 | 3.46 | 0.805 | LGMSQYFRLFN [CPT2_Y217_D213G] | 0.966 | 0.601 | 0.839 | 0.704 | 0.766 | 0.499 | 1.26 | 0.364 | 0.64 | 3.24 | 0.58 | 0.581 | 0.381
0.677 | 1.75 | 0.443 | TDKLFYIYTSG [SLC27A4_Y243] | 1.5 | 0.701 | 0.682 | 0.565 | 0.811 | 0.517 | 1.94 | 0.48 | 0.522 | 1.48 | 0.589 | 1.18 | 0.542
0.901 | 0.833 | 0.577 | RFLERYIFNRQ [HLA-DPB1_Y57_E62Q_YF] | 1.57 | 0.603 | 0.29 | 0.448 | 0.642 | 0.75 | 1.63 | 0.535 | 0.678 | 1.71 | 0.756 | 1.36 | 0.893
0.971 | 0.57 | 0.457 | KRLWDYGMSSS [F8_Y1728_E1723K] | 0.592 | 0.429 | 0.461 | 0.399 | 0.511 | 0.339 | 0.706 | 0.341 | 0.337 | 0.666 | 0.359 | 0.536 | 0.394
1 | 0.777 | 0.668 | VERRVYAEDPF [PCCA_Y401_C398R_YF] | 0.722 | 0.385 | 0.499 | 0.429 | 0.481 | 0.39 | 0.76 | 0.554 | 0.412 | 0.674 | 0.384 | 0.648 | 0.462
1.23 | 1.4 | 0.915 | GMTLSYLFREP [NDUFS8_Y74] | 0.763 | 0.501 | 0.579 | 0.606 | 0.633 | 0.367 | 0.877 | 0.397 | 0.509 | 0.848 | 0.365 | 0.652 | 0.505

SH2 binding enrichment (Grb2 SH2) | SH2 binding enrichment (SHP2-C SH2) | SH2 binding enrichment (c-Src SH2) | Sequence | phosphorylation enrichment (AncSZ) | phosphorylation enrichment (EPHB1) | phosphorylation enrichment (EPHB2) | phosphorylation enrichment (FGFR1) | phosphorylation enrichment (FGFR3) | phosphorylation enrichment (Fer (mouse)) | phosphorylation enrichment (Fes) | phosphorylation enrichment (Fyn) | phosphorylation enrichment (Hck) | phosphorylation enrichment (Jak2) | phosphorylation enrichment (MERTK) | phosphorylation enrichment (c-Abl (mouse)) | phosphorylation enrichment (c-Src)
1 | 0.788 | 0.714 | KLIMEYLPFGS [JAK2_Y931_YF] | 0.868 | 0.49 | 0.571 | 0.468 | 0.595 | 0.456 | 1.09 | 0.401 | 0.424 | 0.965 | 0.372 | 0.734 | 0.558
0.793 | 0.622 | 1.18 | CNRADYSKLAP [GNE_Y22] | 0.749 | 0.613 | 0.607 | 0.472 | 0.61 | 0.485 | 0.844 | 0.458 | 0.459 | 0.621 | 0.609 | 0.556 | 0.412
0.921 | 0.73 | 0.448 | QLQTTYPSSDN [MAX_Y115_N114T] | 0.773 | 0.445 | 0.48 | 0.433 | 0.626 | 0.789 | 0.752 | 0.35 | 0.474 | 0.853 | 0.357 | 0.566 | 0.556
0.88 | 0.608 | 1.65 | TRTEAYAVSSF | 0.58 | 0.442 | 0.378 | 0.373 | 0.396 | 0.328 | 0.816 | 0.399 | 0.359 | 0.587 | 0.406 | 0.476 | 0.353
0.859 | 0.785 | 0.56 | ADTETYLLEKS [MYH7_Y266_I263T] | 1.12 | 0.449 | 0.586 | 0.57 | 0.745 | 0.607 | 1.1 | 0.603 | 0.512 | 1.01 | 0.385 | 0.709 | 0.551
0.657 | 0.79 | 0.473 | SQETYYRVSNM [ABCD1_Y181_Q178E] | 1.37 | 4.42 | 2.95 | 6.81 | 4.94 | 0.549 | 0.805 | 2 | 3.97 | 3.85 | 3.7 | 1.33 | 2.96
0.787 | 0.571 | 0.468 | ESSKAYERALS [TTC37_Y1074] | 0.77 | 0.413 | 0.624 | 0.423 | 0.476 | 0.418 | 0.816 | 0.412 | 0.444 | 0.594 | 0.417 | 0.618 | 0.409
0.771 | 0.863 | 1.09 | GPGGDYAAMGA [ERBB3_Y1276] | 0.6 | 1.3 | 0.903 | 0.776 | 0.605 | 0.488 | 0.766 | 0.414 | 0.527 | 0.604 | 0.511 | 0.572 | 0.494
1.12 | 1.06 | 0.915 | ALCHFYKLNII [ETV6_Y402_R399C_YF] | 1.19 | 0.607 | 0.732 | 0.479 | 0.806 | 0.692 | 1.42 | 0.537 | 0.544 | 1.26 | 0.499 | 0.833 | 0.581
0.856 | 1.04 | 2.09 | SQKRKYIEIDS [SDAD1_Y580] | 0.818 | 0.463 | 0.414 | 0.463 | 0.376 | 0.394 | 0.614 | 0.451 | 0.475 | 0.701 | 0.571 | 0.613 | 0.507
0.89 | 0.856 | 0.471 | SVTCTYSPDLN [TP53_Y126_A129D] | 1.5 | 0.757 | 0.71 | 0.533 | 0.985 | 0.629 | 1.71 | 0.502 | 0.583 | 1.31 | 0.437 | 0.915 | 0.563
0.947 | 0.956 | 0.688 | GKLIFYDLRGE [KARS1_Y145] | 1.02 | 0.492 | 0.637 | 0.517 | 0.584 | 0.432 | 0.984 | 0.474 | 0.531 | 0.823 | 0.436 | 0.664 | 0.413
0.671 | 0.705 | 0.542 | KIEGVYARDET [RPL35A_Y34] | 0.784 | 0.515 | 0.612 | 0.437 | 0.55 | 0.387 | 0.878 | 0.555 | 0.586 | 0.681 | 0.386 | 0.633 | 0.56
0.897 | 0.602 | 0.413 | IVRSRYEDLED [VHL_Y185_L184R] | 1.37 | 0.675 | 0.759 | 0.664 | 0.704 | 0.619 | 0.946 | 0.693 | 0.651 | 0.964 | 0.788 | 0.968 | 0.585
0.902 | 0.766 | 0.609 | DPHKIYEFVNS [IRF3_Y107] | 0.984 | 18.2 | 19.2 | 1.77 | 1.51 | 18.1 | 7.43 | 9.53 | 10.3 | 0.729 | 10.3 | 4.23 | 8.03
0.872 | 0.64 | 0.596 | GGDQPYSGAGD [TYRO3_Y828_R824G] | 0.673 | 0.501 | 0.481 | 0.485 | 0.698 | 0.436 | 0.791 | 0.453 | 0.474 | 0.775 | 0.408 | 0.562 | 0.432

Sequence | SH2 binding enrichment (Grb2 SH2) | SH2 binding enrichment (SHP2-C SH2) | SH2 binding enrichment (c-Src SH2) | phosphorylation enrichment (AncSZ) | phosphorylation enrichment (EPHB1) | phosphorylation enrichment (EPHB2) | phosphorylation enrichment (FGFR1) | phosphorylation enrichment (FGFR3) | phosphorylation enrichment (Fer (mouse)) | phosphorylation enrichment (Fes) | phosphorylation enrichment (Fyn) | phosphorylation enrichment (Hck) | phosphorylation enrichment (Jak2) | phosphorylation enrichment (MERTK) | phosphorylation enrichment (c-Abl (mouse)) | phosphorylation enrichment (c-Src)
IDDNEYAYLKA [HNF4A_Y286] | 0.863 | 0.545 | 0.467 | 1.24 | 0.507 | 0.601 | 1 | 0.868 | 0.507 | 0.991 | 0.564 | 0.707 | 0.849 | 0.423 | 0.571 | 0.677
